Test results: US20250289899A1

How the values were obtained:
[1] = biological target: recombinant His-tagged human FcγRIIIa (176-Val [V]) (human) (UniProt P08637); assay: SPR (Biacore), His-tagged FcγRIIIa-V captured on anti-His chip, antibody in solution, resonance units against antibody concentration
[2] = biological target: recombinant His-tagged human FcγRIa (human) (UniProt P12314); assay: SPR (Biacore), His-tagged FcγRIa captured on anti-His chip, antibody in solution, resonance units against antibody concentration
Chain of recombinant His-tagged human FcγRIa (human) (P12314 16-288 limits assumed): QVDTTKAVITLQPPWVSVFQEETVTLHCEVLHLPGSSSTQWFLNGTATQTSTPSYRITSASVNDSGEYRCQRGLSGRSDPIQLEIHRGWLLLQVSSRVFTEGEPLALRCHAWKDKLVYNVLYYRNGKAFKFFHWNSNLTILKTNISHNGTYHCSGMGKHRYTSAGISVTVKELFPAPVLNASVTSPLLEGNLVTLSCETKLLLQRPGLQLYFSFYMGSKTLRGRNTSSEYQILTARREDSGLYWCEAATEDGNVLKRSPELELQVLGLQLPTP

Chain of recombinant His-tagged human FcγRIIIa (176-Val [V]) (human) (P08637 17-208 F176V limits assumed): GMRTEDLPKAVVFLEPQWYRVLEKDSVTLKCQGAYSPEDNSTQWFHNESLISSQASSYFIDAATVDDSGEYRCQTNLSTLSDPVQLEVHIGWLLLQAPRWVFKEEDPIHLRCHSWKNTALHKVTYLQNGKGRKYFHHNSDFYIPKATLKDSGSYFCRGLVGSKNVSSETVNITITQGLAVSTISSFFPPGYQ

EC50 (read off the curve) [1]: 400 nM
EC50 (read off the curve) [2]: 60 nM
Substance: IgG1-b12 (anti-HIV gp120 antibody, wild-type IgG1 Fc)
